{
  "source": "paper PMC9482448",
  "about": "(Nature, 2021)",
  "binders": {"B1": {"name": "nanobody Nb2 (binds SMCT1) (VHH)", "VHH": "QVQLQESGGGLVQAGGSLRLSCAASGNISTRAGMGWYRQAPGKEREFVASINWGAITNYADSVKGRFTISRDNAKNTVYLQMNSLKPEDTAVYYCAVEYKYGPQRSDTYYYWGQGTQVTVSS"}},
  "target": "human SMCT1 (monocarboxylate transporter of the SGLT family) (Homo sapiens (Human)., UniProt Q8N695)",
  "sequence (Q8N695 whole entry)": "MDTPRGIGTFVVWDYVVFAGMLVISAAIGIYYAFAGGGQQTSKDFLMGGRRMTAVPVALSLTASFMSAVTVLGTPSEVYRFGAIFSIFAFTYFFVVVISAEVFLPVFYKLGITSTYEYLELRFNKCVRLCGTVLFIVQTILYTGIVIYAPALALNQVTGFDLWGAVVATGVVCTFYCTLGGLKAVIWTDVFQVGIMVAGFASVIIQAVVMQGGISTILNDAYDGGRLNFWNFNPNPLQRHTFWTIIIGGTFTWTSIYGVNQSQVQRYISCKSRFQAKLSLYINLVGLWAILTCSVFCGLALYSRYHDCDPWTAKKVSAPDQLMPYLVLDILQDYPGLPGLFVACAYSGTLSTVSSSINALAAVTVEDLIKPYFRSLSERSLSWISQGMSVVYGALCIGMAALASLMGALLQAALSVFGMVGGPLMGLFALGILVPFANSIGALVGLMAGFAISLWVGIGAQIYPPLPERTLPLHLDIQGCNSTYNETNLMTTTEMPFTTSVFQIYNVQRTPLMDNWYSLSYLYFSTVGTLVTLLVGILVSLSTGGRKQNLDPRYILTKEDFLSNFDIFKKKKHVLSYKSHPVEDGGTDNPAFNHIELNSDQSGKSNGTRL",
  "test": "cryo-EM structure",
  "data": [
    {"binder": "B1", "values": [
      {"measurement": "binding result", "result": "binds"}
    ]}
  ]
}
